Laboratory results: patent US20240092836A1 (GENEFRONTIER, published 2024)
Bridges are numbered along the chain shown (N, C = ends). Where no end group is shown, it is not given here.

How the values were obtained:
Orencia [1] = target: T1, Orencia; experiment: ELISA, signal on Orencia over SA
T1 sequence (chain, INN chains, looked up, looked up): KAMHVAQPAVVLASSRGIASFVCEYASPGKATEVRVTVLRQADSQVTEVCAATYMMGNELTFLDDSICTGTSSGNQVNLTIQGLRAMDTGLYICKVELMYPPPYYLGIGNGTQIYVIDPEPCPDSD
Description: (§1) 10 μL of E. coli cultured medium was added with 90 μL of PBS and 40 μL of lysis reagent (20 μL BugBuster Protein Extraction Reagent (Novagen), 20 μL Lysozyme solution 2.5 mg/mL) to lyse E. coli cells for 1 hour at room temperature. […] In parallel, antigen protein was immobilized overnight at 4° C. in 384-well plates at 100 ng/20 μL per well, and each well was washed twice with 100 μL/well of TBST, added with 100 μL/well of 5% skim milk solution (TBST) for blocking for 1 hour at room temperature, and washed twice with 100 μL/well of TBST to obtain antigen-immobilized plates. 20 μL/well of blocking-treated E. coli extract was added to the antigen-immobilized plates and gently stirred at room temperature using a plate mixer. […] The plates were washed 5 times with 100 μL/well of TBST, and binding of cyclic peptides to the antigen was detected by 20 μL/well of chromogenic substrate (0.4 mg/mL 3,3′,5,5′-Tetramethyl-benzidine, 0.01% hydrogen peroxide). After 15 minutes of reaction at room temperature, the reaction was stopped with 20 μL/well of 2N HCl, and absorbance at 450 nm was measured using a plate reader (infinite F200: TECAN) (Table 5).
(§2) An Error-Prone Library was prepared based on H12SSI-Ctla4-3-02, and Affinity Maturation selection experiments were performed. The cyclic peptide genes obtained in each round were subcloned, 94 single colonies were cultured in 96-well plates, and the CTLA-4 binding activity of each MBP-fused cyclic peptide was examined by ELISA.

Orencia [2] = target: T1, Orencia; experiment: ELISA, MBP fusion in E. coli lysate on Orencia
Description: as §1, §2

[3] = target: T2, CTLA-4 expressed on the cell surface of CHO cells (Homo sapiens (Human), UniProt P16410 36-223); experiment: FACS on CHO cells expressing CTLA-4, synthetic peptide
T2 construct: also called CTLA-4 with its natural structure
T2 sequence: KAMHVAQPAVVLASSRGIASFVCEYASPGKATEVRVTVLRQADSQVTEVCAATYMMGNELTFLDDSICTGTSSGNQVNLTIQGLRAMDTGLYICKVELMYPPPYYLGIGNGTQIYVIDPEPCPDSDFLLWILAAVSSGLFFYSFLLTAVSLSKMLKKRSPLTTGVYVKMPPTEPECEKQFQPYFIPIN

[4] = target: T3, CTLA4 of the CTLA4:B7-1[Biotinylated] Inhibitor Screening Assay Kit (BPS Bioscience) (human, UniProt P16410 37-162, limits assumed); experiment: CTLA4:B7-1[Biotinylated] Inhibitor Screening Assay Kit, synthetic peptide against biotinylated B7-1
T3 construct: Kit protein
T3 sequence: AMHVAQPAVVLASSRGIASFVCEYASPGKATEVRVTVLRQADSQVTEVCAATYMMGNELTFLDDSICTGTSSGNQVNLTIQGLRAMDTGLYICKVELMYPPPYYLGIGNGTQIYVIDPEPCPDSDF
Description: Inhibitor Screening Assay Kit (BPS Biosciences) as described above.

Row | Binder | S/N(SA) (Orencia [1]) | ELISA A450 (Orencia [2]) | EC50 [3] | IC50 [4]
1 | GGCVHPFLPVVSHHFCRG (peptide, not shown: large carriers; small tags and cut ends, MBP fusion; also called #12) [C4-302mat-3-100-20] | 3.7 | 0.221 |  | 
2 | GGCMHPFLPVVSHHFCGR (peptide, not shown: large carriers; small tags and cut ends, MBP fusion) [C4-302mat-3-100-37] | 18 | 1.17 |  | 
3 | GGCMHPFLPVVSHHFCGA (peptide, not shown: large carriers; small tags and cut ends, MBP fusion) [C4-302mat-3-1-48] | 14.6 | 0.903 |  | 
4 | GGCMHPYLPVISHHFCGR (peptide, not shown: large carriers; small tags and cut ends, MBP fusion; also called #16) [C4-302mat-3-100-12] | 19.4 | 1.18 |  | 
5 | CMHPFLPIVSHHFCER (disulfide 1-14 (inferred); also: form used in FACS not given here: biotinylated or N-terminal Gly) [No. #19 synthetic peptide used in FACS] |  |  | 0.47 µM | 
6 | GGCMHPFLLVVSRHFCGR (peptide, not shown: large carriers; small tags and cut ends, MBP fusion) [C4-302mat-2-100-40] | 3.9 | 0.204 |  | 
7 | GGCMHPYLQVVSHHFCGR (peptide, not shown: large carriers; small tags and cut ends, MBP fusion) [C4-302mat-3-1-2] | 21.9 | 1.45 |  | 
8 | GGCMHPYLLVASHHFCER (peptide, not shown: large carriers; small tags and cut ends, MBP fusion; also called #39) [C4-302mat-3-1-9] | 8.8 | 0.574 |  | 
9 | GGCMHPFLRVVSHHFCGR (peptide, not shown: large carriers; small tags and cut ends, MBP fusion; also called #33) [C4-302mat-3-1-14] | 15.5 | 0.985 |  | 
10 | GGCMHPFLQVASHHFCGG (peptide, not shown: large carriers; small tags and cut ends, MBP fusion) [C4-302mat-2-1-40] | 6.9 | 0.366 |  | 
11 | GGCMHPFLPIVSHHFCGS (peptide, not shown: large carriers; small tags and cut ends, MBP fusion; also called #18) [C4-302mat-2-100-27] | 25.2 | 1.29 |  | 
12 | GSCMHPFLLVASHHFCRG (peptide, not shown: large carriers; small tags and cut ends, MBP fusion; also called #38) [C4-302mat-2-100-33] | 2.3 | 0.117 |  | 
13 | GGCMHPFLPVVSRHFCGG (peptide, not shown: large carriers; small tags and cut ends, MBP fusion; also called #24) [C4-302mat-3-1-5] | 5.9 | 0.438 |  | 
14 | GGCMHPFLPILSHHFCAG (peptide, not shown: large carriers; small tags and cut ends, MBP fusion; also called #21) [C4-302mat-3-1-32] | 11.4 | 0.656 |  | 
15 | GGCMHPYLLVVSRHFCGR (peptide, not shown: large carriers; small tags and cut ends, MBP fusion; also called #41) [C4-302mat-3-1-15] | 5.4 | 0.351 |  | 
16 | GGCIHPFLQVVSHHFCGG (peptide, not shown: large carriers; small tags and cut ends, MBP fusion; also called #28) [C4-302mat-1-1-21] | 2.7 | 0.155 |  | 
17 | GGCMHPFLRVVSHHFCGG (peptide, not shown: large carriers; small tags and cut ends, MBP fusion; also called #32) [C4-302mat-1-1-37] | 14.2 | 0.665 |  | 
18 | GGCMHPFLPVVSHHFCRG (peptide, not shown: large carriers; small tags and cut ends, MBP fusion) [C4-302mat-2-100-18] | 16.1 | 0.857 |  | 
19 | GGCMHPFLQTVSHHFCGG (peptide, not shown: large carriers; small tags and cut ends, MBP fusion; also called #22) [C4-302mat-3-1-35] | 5.3 | 0.299 |  | 
20 | GGCMHPFLPVVSRHFCGR (peptide, not shown: large carriers; small tags and cut ends, MBP fusion; also called #25) [C4-302mat-3-1-12] | 17.9 | 0.95 |  | 
21 | GGCMHPFLLTVSRHFCGG (peptide, not shown: large carriers; small tags and cut ends, MBP fusion; also called #44) [C4-302mat-3-1-11] | 8.1 | 0.412 |  | 
22 | GGCMHPFLQVVSHHFCGS (peptide, not shown: large carriers; small tags and cut ends, MBP fusion; also called #26) [C4-302mat-2-1-35] | 17.9 | 0.904 |  | 
23 | GGCMHPFLLVASHHFCGV (peptide, not shown: large carriers; small tags and cut ends, MBP fusion) [C4-302mat-2-1-37] | 2.3 | 0.12 |  | 
24 | GGCMHPFLPVTSHHFCGG (peptide, not shown: large carriers; small tags and cut ends, MBP fusion; also called #17) [C4-302mat-2-1-3] | 14.8 | 0.802 |  | 

Row | Binder | S/N(SA) (Orencia [1]) | ELISA A450 (Orencia [2]) | EC50 [3] | IC50 [4]
25 | GSCMHPFLPVASRHFCGR (peptide, not shown: large carriers; small tags and cut ends, MBP fusion; also called #23) [C4-302mat-3-1-31] | 13.2 | 0.868 |  | 
26 | GGCMHPYLLVVSHHFCGR (peptide, not shown: large carriers; small tags and cut ends, MBP fusion; also called #40) [C4-302mat-2-100-24] | 4 | 0.227 |  | 
27 | GGCMHPFLLVVSHHFCGG (peptide, not shown: large carriers; small tags and cut ends, MBP fusion; also called original clone; Original) [H12SSI-Ctla4-3-02 (MBP fusion)] | 4.3 | 0.228 |  | 
28 | GGCKHPYLPVASHHFCRG (peptide, not shown: large carriers; small tags and cut ends, MBP fusion; also called #14) [C4-302mat-3-1-10] | 10.3 | 0.586 |  | 
29 | GGCLHPFLPIVSHHFCGR (peptide, not shown: large carriers; small tags and cut ends, MBP fusion; also called clone #10; No. #10) [C4-302mat-3-100-44] | 18.5 | 1.14 |  | 
30 | GGCKHPFLPVVSHHFCGG (peptide, not shown: large carriers; small tags and cut ends, MBP fusion; also called #13) [C4-302mat-3-100-9] | 14.4 | 0.779 |  | 
31 | GGCLHPFLPLVSHHFCGG (peptide, not shown: large carriers; small tags and cut ends, MBP fusion; also called #9) [C4-302mat-2-1-38] | 16.4 | 0.807 |  | 
32 | GGCMHPYLPVISHHFCGG (peptide, not shown: large carriers; small tags and cut ends, MBP fusion; also called #15) [C4-302mat-2-1-27] | 13.7 | 0.785 |  | 
33 | GGCVHPFLQVVSHHFCGG (peptide, not shown: large carriers; small tags and cut ends, MBP fusion; also called #29) [C4-302mat-1-100-23] | 5.4 | 0.25 |  | 
34 | GGCMHPFLRIVSQHFCRR (peptide, not shown: large carriers; small tags and cut ends, MBP fusion; also called #35) [C4-302mat-2-1-24] | 2.4 | 0.14 |  | 
35 | GGCLHPFLPVVSHHFCGD (peptide, not shown: large carriers; small tags and cut ends, MBP fusion; also called #8) [C4-302mat-2-1-2] | 23.5 | 1.2 |  | 
36 | GGCRHPFLPIVSRHFCRG (peptide, not shown: large carriers; small tags and cut ends, MBP fusion; also called #11) [C4-302mat-3-1-45] | 11.2 | 0.689 |  | 
37 | GGCKHPFLRVVSHHFCRR (peptide, not shown: large carriers; small tags and cut ends, MBP fusion; also called #34) [C4-302mat-2-1-12] | 8.5 | 0.51 |  | 
38 | GCMHPFLPIVSHHFCER (disulfide 2-15 (inferred), chemically synthesised, glycine added to the N-terminus; also called synthesized peptide (Clone No. #19)) [Gly-clone #19: GCMHPFLPIVSHHFCER] |  |  |  | 11.5 µM
39 | GGCMHPFLQVVSHHFCGG (peptide, not shown: large carriers; small tags and cut ends, MBP fusion; also called #27) [C4-302mat-2-100-4] | 9.3 | 0.545 |  | 
40 | GGCMHPFLPVASHHFCGG (peptide, not shown: large carriers; small tags and cut ends, MBP fusion) [C4-302mat-1-1-35] | 11.2 | 0.534 |  | 
41 | GGCMHPFLKIASHHFCGG (peptide, not shown: large carriers; small tags and cut ends, MBP fusion; also called #36) [C4-302mat-3-1-8] | 8.2 | 0.555 |  | 
42 | GGCMHPFLPVVSHHFCGG (peptide, not shown: large carriers; small tags and cut ends, MBP fusion) [C4-302mat-1-1-24] | 14.7 | 0.78 |  | 
43 | GGCMHPFLPIASLHFCGR (peptide, not shown: large carriers; small tags and cut ends, MBP fusion; also called #20) [C4-302mat-3-1-23] | 19.7 | 1.21 |  | 
44 | GGCMHPFLPVASHHFCAG (peptide, not shown: large carriers; small tags and cut ends, MBP fusion) [C4-302mat-3-100-27] | 16.6 | 0.927 |  | 
45 | GGCKHPFLLIVSHHFCGR (peptide, not shown: large carriers; small tags and cut ends, MBP fusion; also called #45) [C4-302mat-3-100-39] | 2.3 | 0.136 |  | 
46 | GDCKHPYLLTVSHHFCGR (peptide, not shown: large carriers; small tags and cut ends, MBP fusion; also called #42) [C4-302mat-3-1-25] | 4.3 | 0.264 |  | 
47 | GGCMHPFLPVASHHFCGR (peptide, not shown: large carriers; small tags and cut ends, MBP fusion; also called #6) [C4-302mat-3-1-22] | 18.9 | 1.11 |  | 
